The supplement of paper PMC9732359
± gives the uncertainty stated by the source.

Assay: protein stability index of a GFP-peptide fusion (yeast GPS) (PSI 1-4); higher = more stable; sorted into four equal gates, so the index is relative within each strain
Summary of the method: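 Tiled 17-residue yeast protein peptides were fused downstream of GFP in a plasmid that also expresses Cherry, and the pooled library was carried in yeast. Mid-log cultures in leucine-free medium were sorted into four equal gates by GFP/Cherry fluorescence ratio, and plasmids from each gate were PCR-amplified and Illumina-sequenced, with reads assigned to strains by barcodes. The protein stability index for each peptide was each gate's read frequency times its gate number, summed.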

TKENLEVSGENVVEADL [QCR2]
protein stability index (doa10∆): 3.33 ± 0.27
protein stability index (pdr5∆): 3.6 ± 0.09
protein stability index (san1∆): 3.52 ± 0.1
protein stability index (ubr1∆): 2.8 ± 0.14

RENGKGGQIAHILFQNN [ROX3]
protein stability index (doa10∆): 1.88 ± 0.062
protein stability index (pdr5∆): 2.32 ± 0.06
protein stability index (san1∆): 2.75 ± 0.061
protein stability index (ubr1∆): 2.48 ± 0.12

KVKILEQIDENWSKEDL [SWI3]
protein stability index (doa10∆): 3.12 ± 0.079
protein stability index (pdr5∆): 2.92 ± 0.091
protein stability index (san1∆): 2.88 ± 0.097
protein stability index (ubr1∆): 2.89 ± 0.091

TIYYVDSDGTRLKGDIF [PRE2]
protein stability index (doa10∆): 3.24 ± 0.067
protein stability index (pdr5∆): 3.24 ± 0.065
protein stability index (san1∆): 2.97 ± 0.096
protein stability index (ubr1∆): 3.16 ± 0.057

VSALQMLKQHLFKYQGH [PUP1]
protein stability index (doa10∆): 2.55 ± 0.073
protein stability index (pdr5∆): 2.71 ± 0.076
protein stability index (san1∆): 2.65 ± 0.059
protein stability index (ubr1∆): 2.57 ± 0.05

TGVVYNVTKSSVGVIIN [RPL21A]
protein stability index (doa10∆): 2.07 ± 0.09
protein stability index (pdr5∆): 2.6 ± 0.057
protein stability index (san1∆): 1.95 ± 0.095
protein stability index (ubr1∆): 2.18 ± 0.067

KSHSTVSSSSRHHRKTE [ISW2]
protein stability index (doa10∆): 2.7 ± 0.055
protein stability index (pdr5∆): 2.69 ± 0.043
protein stability index (san1∆): 2.14 ± 0.052
protein stability index (ubr1∆): 2.88 ± 0.041

LLQKMLNLLNYQELFIQ [YML103C/NUP188]
protein stability index (doa10∆): 2.4 ± 0.053
protein stability index (pdr5∆): 1.47 ± 0.038
protein stability index (san1∆): 1.38 ± 0.07
protein stability index (ubr1∆): 1.52 ± 0.036

IEDDGIIESHLIQLQNI [CSN9]
protein stability index (doa10∆): 2.77 ± 0.1
protein stability index (pdr5∆): 3.17 ± 0.099
protein stability index (san1∆): 2.97 ± 0.075
protein stability index (ubr1∆): 2.76 ± 0.073

IPSQRGTSTTHGSISPQ [SIR3]
protein stability index (doa10∆): 2.39 ± 0.033
protein stability index (pdr5∆): 2.58 ± 0.035
protein stability index (san1∆): 2.37 ± 0.036
protein stability index (ubr1∆): 2.54 ± 0.026

GLIAARRTGLLRGSQKT [RPL2A]
protein stability index (doa10∆): 3.04 ± 0.12
protein stability index (pdr5∆): 3.08 ± 0.11
protein stability index (san1∆): 2.88 ± 0.11
protein stability index (ubr1∆): 2.78 ± 0.11

RRFKNGFQTGSASKASA [RPL37A]
protein stability index (doa10∆): 2.99 ± 0.053
protein stability index (pdr5∆): 2.98 ± 0.056
protein stability index (san1∆): 3.06 ± 0.067
protein stability index (ubr1∆): 2.88 ± 0.043

PQQSGKKLLINKDASLA [DPB4]
protein stability index (doa10∆): 2.2 ± 0.062
protein stability index (pdr5∆): 1.99 ± 0.064
protein stability index (san1∆): 1.81 ± 0.1
protein stability index (ubr1∆): 2.22 ± 0.055

QLETLTGSIRHRLKLCK [CSE2]
protein stability index (doa10∆): 3.32 ± 0.26
protein stability index (pdr5∆): 3.05 ± 0.17
protein stability index (ubr1∆): 2.97 ± 0.21

FIKVVNYNHLLPTRYTL [RPL27A]
protein stability index (doa10∆): 2.34 ± 0.06
protein stability index (pdr5∆): 2.25 ± 0.076
protein stability index (san1∆): 2.07 ± 0.098
protein stability index (ubr1∆): 2.18 ± 0.067

MLCTADTPEGEACGLVK [RET1]
protein stability index (doa10∆): 1.47 ± 0.1
protein stability index (pdr5∆): 1.77 ± 0.14

APYRKQIISNAHNKPSL [YAR002W/NUP60]
protein stability index (doa10∆): 2.17 ± 0.073
protein stability index (pdr5∆): 2.47 ± 0.081
protein stability index (san1∆): 2 ± 0.1
protein stability index (ubr1∆): 2.36 ± 0.085

KTQQNEKSENGENDDDT [RPN3]
protein stability index (doa10∆): 3.04 ± 0.19
protein stability index (pdr5∆): 3.41 ± 0.18
protein stability index (san1∆): 2.92 ± 0.13
protein stability index (ubr1∆): 3.34 ± 0.11

DMVKLDINPPLVFILAV [RRP42]
protein stability index (doa10∆): 2.69 ± 0.068
protein stability index (pdr5∆): 2.3 ± 0.043
protein stability index (san1∆): 2.2 ± 0.07
protein stability index (ubr1∆): 2.19 ± 0.035

LENFKSYAGKQVVGPFH [SMC4]
protein stability index (doa10∆): 3.04 ± 0.076
protein stability index (pdr5∆): 3.2 ± 0.19
protein stability index (san1∆): 2.98 ± 0.11
protein stability index (ubr1∆): 2.98 ± 0.1

TTLKSVTIASEIYYDPD [RPO21]
protein stability index (doa10∆): 2.75 ± 0.1
protein stability index (pdr5∆): 2.45 ± 0.085
protein stability index (san1∆): 2.82 ± 0.099
protein stability index (ubr1∆): 2.24 ± 0.055

PFFARFKLRIQTTEGYD [RPB11]
protein stability index (pdr5∆): 1.37 ± 0.12
protein stability index (san1∆): 1.37 ± 0.26

DYNKKQDRIQDVKLVLA [MED1]
protein stability index (doa10∆): 2.69 ± 0.078
protein stability index (pdr5∆): 2.83 ± 0.074
protein stability index (san1∆): 2.28 ± 0.11
protein stability index (ubr1∆): 2.28 ± 0.072

VQSGQIYINKSVPTNSA [RET1]
protein stability index (doa10∆): 3.29 ± 0.14
protein stability index (pdr5∆): 3.32 ± 0.082
protein stability index (san1∆): 3.35 ± 0.091
protein stability index (ubr1∆): 3.33 ± 0.086

ELLSMGNAKESKALLRE [SRP72]
protein stability index (doa10∆): 2.98 ± 0.12
protein stability index (pdr5∆): 2.81 ± 0.21
protein stability index (san1∆): 2.91 ± 0.19
protein stability index (ubr1∆): 3.13 ± 0.16

NVKNYSTTQEILEFITA [RPC34]
protein stability index (doa10∆): 1.28 ± 0.24
protein stability index (pdr5∆): 1.45 ± 0.088
protein stability index (san1∆): 1.18 ± 0.18
protein stability index (ubr1∆): 1.25 ± 0.15

SKPSTASPSAHTSSSDG [RPN4]
protein stability index (doa10∆): 2.71 ± 0.064
protein stability index (pdr5∆): 3.04 ± 0.064
protein stability index (san1∆): 2.66 ± 0.05
protein stability index (ubr1∆): 2.92 ± 0.045

KEECQIEDDGIIESHLI [CSN9]
protein stability index (doa10∆): 3.59 ± 0.25
protein stability index (pdr5∆): 3.23 ± 0.14
protein stability index (san1∆): 3.19 ± 0.084
protein stability index (ubr1∆): 3.02 ± 0.23

ENEFVVLLDARDIEKIT [CDC53]
protein stability index (pdr5∆): 2.98 ± 0.17
protein stability index (ubr1∆): 3.08 ± 0.14

ENRFQDTLLLLPTDGGL [POP4]
protein stability index (doa10∆): 1.46 ± 0.096
protein stability index (pdr5∆): 2.12 ± 0.085
protein stability index (san1∆): 1.77 ± 0.11
protein stability index (ubr1∆): 2.44 ± 0.082

VNDSVISAPSMEDEILS [BRN1]
protein stability index (doa10∆): 2.05 ± 0.1
protein stability index (pdr5∆): 2.29 ± 0.089
protein stability index (san1∆): 2.41 ± 0.11
protein stability index (ubr1∆): 2.86 ± 0.073

AVFIVPKILIREHERVI [SWP82]
protein stability index (doa10∆): 1.7 ± 0.085
protein stability index (pdr5∆): 2.06 ± 0.097
protein stability index (san1∆): 1.69 ± 0.15
protein stability index (ubr1∆): 2.1 ± 0.19

MLMSKIGDVDGLIVNPV [POP5]
protein stability index (doa10∆): 2.57 ± 0.051
protein stability index (pdr5∆): 2.58 ± 0.056
protein stability index (san1∆): 2.47 ± 0.041
protein stability index (ubr1∆): 2.42 ± 0.04

RKVRTKKWKKYWQYKAG [SWP82]
protein stability index (doa10∆): 2.47 ± 0.089
protein stability index (pdr5∆): 2.17 ± 0.12
protein stability index (san1∆): 2.83 ± 0.12
protein stability index (ubr1∆): 2.04 ± 0.058

NALEHKYFTESDIPVSE [SSN3]
protein stability index (doa10∆): 2.3 ± 0.081
protein stability index (pdr5∆): 2.75 ± 0.11
protein stability index (san1∆): 2.76 ± 0.082
protein stability index (ubr1∆): 2.94 ± 0.096

LANNVESKLRDDLERLK [RPS18A]
protein stability index (doa10∆): 3.45 ± 0.16
protein stability index (pdr5∆): 3.27 ± 0.16
protein stability index (san1∆): 2.97 ± 0.24
protein stability index (ubr1∆): 3.41 ± 0.049

IRKGANDGEVYQKIFKP [PRE9]
protein stability index (doa10∆): 2.06 ± 0.098
protein stability index (pdr5∆): 1.81 ± 0.068
protein stability index (ubr1∆): 1.83 ± 0.059

FFRNKLKYHDFLRKATA [RPL16B]
protein stability index (doa10∆): 2.02 ± 0.085
protein stability index (pdr5∆): 2.48 ± 0.086
protein stability index (san1∆): 2.4 ± 0.079
protein stability index (ubr1∆): 2.23 ± 0.072

KISLLRPSFQNNRISNA [SWP82]
protein stability index (doa10∆): 2.46 ± 0.042
protein stability index (pdr5∆): 2.37 ± 0.046
protein stability index (san1∆): 2.23 ± 0.078
protein stability index (ubr1∆): 2.27 ± 0.041

VKAILMQRHVKVDGKVR [RPS4A]
protein stability index (doa10∆): 3.13 ± 0.15
protein stability index (pdr5∆): 3.09 ± 0.11
protein stability index (san1∆): 3.55 ± 0.2
protein stability index (ubr1∆): 2.9 ± 0.086

SSTLGIDLEDIKEELTK [PCI8]
protein stability index (doa10∆): 2.93 ± 0.091
protein stability index (pdr5∆): 3.1 ± 0.094
protein stability index (san1∆): 3.17 ± 0.1
protein stability index (ubr1∆): 3.02 ± 0.1

KLFVSKEHAPYTDELEE [FAS2]
protein stability index (pdr5∆): 1.61 ± 0.12
protein stability index (san1∆): 1.56 ± 0.28
protein stability index (ubr1∆): 1.83 ± 0.15

TVAHIQYDFKAVLEEND [RPN14]
protein stability index (doa10∆): 1.95 ± 0.12
protein stability index (pdr5∆): 2.72 ± 0.2
protein stability index (san1∆): 2.26 ± 0.11
protein stability index (ubr1∆): 2.28 ± 0.24

YTSIVQCCEFMTMLTPN [YML103C/NUP188]
protein stability index (doa10∆): 2.13 ± 0.051
protein stability index (pdr5∆): 2.03 ± 0.05
protein stability index (san1∆): 1.95 ± 0.062
protein stability index (ubr1∆): 2 ± 0.044

RLIDSMKQYSYLMDSKN [RRI1]
protein stability index (doa10∆): 2.62 ± 0.21
protein stability index (pdr5∆): 2.41 ± 0.14
protein stability index (ubr1∆): 2.87 ± 0.18

LLVFRNADLDLDEMELH [YDL116W/NUP84]
protein stability index (doa10∆): 3.01 ± 0.074
protein stability index (pdr5∆): 2.45 ± 0.073
protein stability index (san1∆): 3.01 ± 0.054
protein stability index (ubr1∆): 2.73 ± 0.047

RAGVCEYNEDSRLCTPI [RPN13]
protein stability index (doa10∆): 2.29 ± 0.12
protein stability index (pdr5∆): 1.86 ± 0.078
protein stability index (san1∆): 1.41 ± 0.2
protein stability index (ubr1∆): 2.84 ± 0.072

GKILTIKQQQQQQQQQN [YML103C/NUP188]
protein stability index (doa10∆): 2.77 ± 0.049
protein stability index (pdr5∆): 3.13 ± 0.053
protein stability index (san1∆): 3.12 ± 0.048
protein stability index (ubr1∆): 2.96 ± 0.049

LAMNDDDFLSKKRKAGR [SNF2]
protein stability index (doa10∆): 3.41 ± 0.11
protein stability index (pdr5∆): 3.58 ± 0.084
protein stability index (san1∆): 3.16 ± 0.1
protein stability index (ubr1∆): 3.52 ± 0.091

TDYLYRRLHDENLMVQR [YCS4]
protein stability index (doa10∆): 2.44 ± 0.089
protein stability index (pdr5∆): 2.08 ± 0.063
protein stability index (san1∆): 2.45 ± 0.067
protein stability index (ubr1∆): 2.38 ± 0.076

VPEMIGSVVGIYNGKAF [RPS15]
protein stability index (doa10∆): 1.27 ± 0.15
protein stability index (pdr5∆): 1.34 ± 0.074
protein stability index (san1∆): 1.66 ± 0.24
protein stability index (ubr1∆): 1.41 ± 0.072

ENNRLLFECRTCSYVEE [RPB9]
protein stability index (doa10∆): 3.12 ± 0.13
protein stability index (pdr5∆): 3.2 ± 0.14
protein stability index (san1∆): 3.04 ± 0.17
protein stability index (ubr1∆): 3.29 ± 0.16

LNSNNSIIGNKNNNYTW [REC8]
protein stability index (doa10∆): 2.86 ± 0.14
protein stability index (pdr5∆): 2.76 ± 0.1
protein stability index (san1∆): 2.87 ± 0.07
protein stability index (ubr1∆): 2.41 ± 0.072
